Reference: patent US20040214757

Legend:
Assay in all cases: EMSA
[1] = molecular target: Oct-2 truncated at StuI (cDNA 655-1443) (Homo sapiens, UniProt P09086 SEQ:199-461)
Protocol: (§1) The polypeptides translated in vitro from these RNAs were tested for specific DNA binding by addition of the total translation mix to the DNA-protein gel assay.

[2] = molecular target: T1, Oct-2 truncated at PstI (cDNA 655-1134) (Homo sapiens, UniProt P09086 SEQ:199-358)
T1 sequence: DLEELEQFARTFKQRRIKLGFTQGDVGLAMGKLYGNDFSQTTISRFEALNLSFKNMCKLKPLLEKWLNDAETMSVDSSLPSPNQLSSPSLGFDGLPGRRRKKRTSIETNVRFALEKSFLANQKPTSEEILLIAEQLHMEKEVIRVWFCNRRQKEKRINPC
Protocol: as §1

[3] = molecular target: Oct-2 (pBS-ATG-oct-2, cDNA 655-1710) (Homo sapiens, UniProt P09086 SEQ:199-466)
Protocol: as §1

Measured: binding result

B1: OCTA octanucleotide probe (dsDNA)
DNA 1: ATGCAAAT
DNA 2: ATTTGCAT
binds: all assays above
